From patent publication US10480012B2, “CYP-P22 biocatalytic nanoparticles with cytochrome P450 activity for prodrug activation” (UNIVERSIDAD NACIONAL AUTÓNOMA DE MÉXICO, priority 2015, dated 2019)

Assays:
[1] = test system: human MCF7 breast cancer cells; experiment: CYP activity in tumor cells treated with nanoparticles (BFC fluorescence assay); type: cell-based; details: 100 μM BFC, fluorescence images
Protocol: I) The presence of biocatalytic nanoparticles (loaded nanoparticles) with CYP activity is evaluated in transformation of 7-benzyloxy-4-trifluorometyl-coumarin (BFC) monitored by fluorescence according to the method of Donato et al.. The fluorescence assay for determining CYP activity is performed with a direct incubation of cultured tumor cells in a 12-well plate in the presence of BFC 100 μM. […] After 60 min incubation at 37° C. the incubation medium is removed and the conjugated products of CYP transformation will be hydrolyzed with a mixture of 3-giucoronidase/arylsulfatase for 2 hours at 37° C. Finally, samples are diluted with the corresponding solution and product fluorescence (7-hydroxy-4-trifluoromethylcoumarin, HFC) is quantified in a spectrofluorimeter with 410 nm excitation and 510 nm emission.
J) Affinity evaluation of functionalized loaded nanoparticles in tumor cells in vitro is carried out in human MCF7 breast cancer cells that are maintained in DMEM medium (Dulbecco's Modified Eagle's Medium) supplemented with 10% fetal bovine serum. […] The presence of biocatalytic nanoparticles (CYP-P22) with CYP activity is evaluated in the transformation of 7-benzyloxy-4-trifluoromethyl-coumarin (BFC) monitored by fluorescence according to the method of Donato et al.. […]

[2] = test system: trypsin; experiment: Stability to protease degradation (trypsin), residual activity; type: physicochemical; details: 10 U trypsin per mg protein, room temperature
Protocol: For proteolysis assays, the encapsulated and free enzyme was treated with 10 U of trypsin per mg protein, incubating for 1 and 20 h at room temperature. At the end of each time, an aliquot was taken out of the sample and the residual activity was measured in 100 mM Tris-HCl buffer pH 8 using 500 μM 2,6-DMP as substrate and initiating the reaction with 5 mM H2O2.

[3] = pH activity profile; type: biochemical; details: 500 μM 2,6-DMP, 5 mM H2O2
Protocol: To determine the activity profile at different pH values for the encapsulated and free enzyme, catalytic activity was measured at the following pHs: 5 (100 mM sodium acetate), 6 (100 mM potassium phosphate}, 7, 8 and 9 (100 mM Tris-HCl), 10 (100 mM borates). Catalytic activity was measured in a final volume of 0.1 mL using as substrate 500 μM 2,6-DMP and initiating the reaction with 5 mM H2O2.

[4] = Temperature stability, activity retention at 40 and 50° C.; type: physicochemical
Protocol: Stability of encapsulated CYP and the free enzyme was determined by measuring the percentage of activity retention at different times when the protein was incubated at 40 and 50° C. in a water bath. Incubation times for each of the temperatures were 0, 5, 10, 15 and 30 min. At the end of each time, an aliquot was removed from the sample, centrifuged for 1 min at 16,000×g and left to rest for 10 min to temper the sample before measuring activity. Catalytic activity was measured in a final volume of 0.1 mL in 100 mM Tris-HCl buffer pH 8 using 500 μM 2,6-DMP as substrate and initiating the reaction with 5 mM H2O2.

[5] = Kinetic parameters of encapsulated and free CYP with 2,6-DMP and H2O2; type: biochemical
Protocol: To calculate the kinetic parameters using 2,6-DMP as a substrate, two curves were constructed with two different concentrations of hydrogen peroxide, 5 mM and 60 mM. Reactions were carried out in 0.1 mL (50 mM Tris-HCl pH 8) with the following phenol concentrations: 10, 25, 50, 125, 250 and 500 μM. The reaction was started by adding 5 mM or 60 mM of H2O2. The amount of encapsulated enzyme used was 42.9 picomoles (assays with 5 mM H2O2) and 21.45 picomoles (assays with 60 mM H2O2); the amount of protein was determined by a concentration assay, specific for CYP450, for binding to CO. The catalytic activity was spectrophotometrically monitored at 468 nm (ε468=14800 M^−1 cm^−1 using an Agilent 8453 UV-vis spectrophotometer. Catalytic constants were obtained through the GraphPad Prism 6 program.
H) Catalytic capacity of P22 capsids with CYP inside is evaluated. Reactions were carried out in 0.1 mL (50 mM Tris-HCl pH 8) with the following phenol concentrations: 10, 25, 50, 125, 250 and 500 μM. The reaction was started by adding 5 mM or 60 mM of H2O2. The amount of encapsulated enzyme used was 42.9 picomoles, the amount of protein was determined by a CO binding assay specific for CYP450. Catalytic activity was spectrophotometrically monitored at 468 nm (ε468=14800 M^−1 cm^−1). […] The encapsulated enzyme follows a Michaelis-Menten kinetics as does free CYP.

B1: CYP-P22: cytochrome P450 (CYPBM3 “21B3” fused to scaffold protein) encapsulated in a bacteriophage P22 nanocapsid (protein)
chain: MAIKEMPQPKTFGELKNLPLLNTDKPVQALMKIADELGEIFKFEAPGRVTRYLSSQRLVKEACDESRFDKNLSQALKFVRDFAGDGLATSWTHEKNWKKARNILLPSLSQQAMKGYHAMMVDIAVQLVQKWERLNSDEKIEVPEDVTRLTLDTIGLCGFNYRFNSFYRDQPHPFITSMVRALDEAMNKLQRANPDDPAYDENKRQFQEDIKVMDLVDKIIADRKASGEQSDDLLTHMLHGKDPETGEPLDDENIRYQIITFLIAGHETTSGLLTFALYFLVKNPHVLQKAAEEAARVLVDPVPSYKQVKQLKYVGMVLNEALRLWPTAPAFSLYAKEDTVLGGEYPLEKGDELMVLIPQLHRDKTIWGDDVEEFRPERFENPSAIPQHAFKPFGNGQRACIGQQFALHEATLVLGMMLKHFDFEDHTNYELDIEETLTLKPEGFVIKAKSKKIPLGGIPSPSTGSLVPRGSCRSNAVAEQGRKTQEFTQQSAQYVEAARKHYDAAEKLNIPDYQEKEDAFMQLVPPAVGADIMRLFPEKSAALMYHLGANPEKARQLLAMDGQSALIELTRLSERLTLKPRGKQISSAPHADQPITGDVSAANKDAIRKQMDAAASKGDVETYRKLKAKLKGIR
[1]
  cytochrome P450 activity in treated tumor cells versus endogenous activity in untreated cells: much greater
[2]; 1 hour
  activity retained after incubation with trypsin: 96%
[2]; 20 hours
  activity retained after incubation with trypsin: 38%
[3]
  pH of optimum activity: pH 8 and 9
[4]; 40° C.
  stability compared with free enzyme: practically the same
[4]; 50° C.
  inactivation compared with free CYP: even faster than that found for free CYP
[5]
  catalytic activity using 2,6-DMP and H2O2 as substrates: catalytically active
[5]; substrate 2,6-DMP, 5 mM H2O2, 50 mM Tris-HCl pH 8
  kcat app: 127.2 (±2.3) min^−1
